The results in this text go back to paper PMC10495343 (2023).

The target of test [1] is T1, collagen-binding, serum albumin-fused IL-4 variant (CBD-SA-IL-4) (UniProt P04275). As to the kind of experiment: ELISA. (ELISA stands for enzyme-linked immunosorbent assay.)
Test [2] has as its target T1, collagen-binding, serum albumin-fused …. As to the kind of experiment: SPR. Background: SPR reads the build-up and loss of mass on a sensor chip optically.

B1: IL-4Rα-Fc (Fc fusion)
chain: IKVLGEPTCFSDYIRTSTCEWFLDSAVDCSSQLCLHYRLMFFEFSENLTCIPRNSASTVCVCHMEMNRPVQSDRYQMELWAEHRQLWQGSFSPSGNVKPLAPDNLTLHTNVSDEWLLTWNNLYPSNNLLYKDLISMVNISREDNPAEFIVYNVTYKEPRLSFPINILMSGVYYTARVRVRSQILTGTWSEWSPSITWYNHFQLPLIQR
For the molecule B1, binding in test [1] was put at a Kd of 0.118 nM.

B2: collagen III (natural protein)
chain: QYDSYDVKSGVAVGGLAGYPGPAGPPGPPGPPGTSGHPGSPGSPGYQGPPGEPGQAGPSGPPGPPGAIGPSGPAGKDGESGRPGRPGERGLPGPPGIKGPAGIPGFPGMKGHRGFDGRNGEKGETGAPGLKGENGLPGENGAPGPMGPRGAPGERGRPGLPGAAGARGNDGARGSDGQPGPPGPPGTAGFPGSPGAKGEVGPAGSPGSNGAPGQRGEPGPQGHAGAQGPPGPPGINGSPGGKGEMGPAGIPGAPGLMGARGPPGPAGANGAPGLRGGAGEPGKNGAKGEPGPRGERGEAGIPGVPGAKGEDGKDGSPGEPGANGLPGAAGERGAPGFRGPAGPNGIPGEKGPAGERGAPGPAGPRGAAGEPGRDGVPGGPGMRGMPGSPGGPGSDGKPGPPGSQGESGRPGPPGPSGPRGQPGVMGFPGPKGNDGAPGKNGERGGPGGPGPQGPPGKNGETGPQGPPGPTGPGGDKGDTGPPGPQGLQGLPGTGGPPGENGKPGEPGPKGDAGAPGAPGGKGDAGAPGERGPPGLAGAPGLRGGAGPPGPEGGKGAAGPPGPPGAAGTPGLQGMPGERGGLGSPGPKGDKGEPGGPGADGVPGKDGPRGPTGPIGPPGPAGQPGDKGEGGAPGLPGIAGPRGSPGERGETGPPGPAGFPGAPGQNGEPGGKGERGAPGEKGEGGPPGVAGPPGGSGPAGPPGPQGVKGERGSPGGPGAAGFPGARGLPGPPGSNGNPGPPGPSGSPGKDGPPGPAGNTGAPGSPGVSGPKGDAGQPGEKGSPGAQGPPGAPGPLGIAGITGARGLAGPPGMPGPRGSPGPQGVKGESGKPGANGLSGERGPPGPQGLPGLAGTAGEPGRDGNPGSDGLPGRDGSPGGKGDRGENGSPGAPGAPGHPGPPGPVGPAGKSGDRGESGPAGPAGAPGPAGSRGAPGPQGPRGDKGETGERGAAGIKGHRGFPGNPGAPGSPGPAGQQGAIGSPGPAGPRGPVGPSGPPGKDGTSGHPGPIGPPGPRGNRGERGSEGSPGHPGQPGPPGPPGAPGPCCGGVGAAAIAGIGGEKAGGFAPYYG
For B2, the koff – broadly, the first-order rate constant of dissociation – in test [2] is 0.0056 s⁻¹.
